# Assay results reported in patent publication US9441018B2, “Gene from tidal flat metagenome and a novel protein displaying both phospholipase and lipase activities” (KOREA RESEARCH INSTITUTE OF BIOSCIENCE AND BIOTECHNOLOGY, priority 2011, dated 2016).
# B1: MPIaG: catalytic domain of PlaG, SEQ. ID. NO: 5, protein having both phospholipase and lipase activities, from tidal flat metagenome (protein)
# chain: LNQSDYEKAIDYGKLSAQAYDWDDYAAAHVGMGFFANIDDIKATDFATPNYVEVQSVGGYIDWWGTDGLDFKVFQNTETDDLVVAYKGTEPLSPVDWVADAEQIFGNSEQYQKAVDFARDLSAQVEQYNVQNGLTGDAAMQLSFTGHSLGGGLATASALATGREAMAFDAAGLSQGTINNLGLDIRHASKITNFNVKGDWLSDHNKQMDDTTLGSELAGIVPETKQYGNTYWLEGINDIADFGGWLVPDNNMAVDFAKSILNHAWHVYVYMLENDKFL
# modifications: phospholipase/lipase MPlaG AA
# Legend:
# [1] = Clear zone on solid medium supplemented with tricaprylin emulsion (lipase activity); assay type: biochemical; settings: solid nutritive medium
# Excerpt: When tricaprylin is decomposed by lipase, clear zone is formed. So, the colonies forming such clear zone were selected.
# (§1) The recombinant plasmid pFosPlaG derived from the metagenome library was isolated in the solid nutritive medium supplemented with tricaprylin emulsion which has been widely used for the isolation/confirmation of lipase gene. To investigate the phospholipase activity of the gene, the purified phospholipase/lipase MPIaG was loaded on the solid medium supplemented with phosphatydilcholine emulsion [0.5% (w/v) phosphatydilcholine, 0.5% (w/v) taurocholic acid, 20 mM CaCl2], followed by observing clear zone to confirm the activity.
# [2] = Clear zone on solid medium supplemented with phosphatydilcholine emulsion (phospholipase activity); assay type: biochemical; settings: 0.5% phosphatydilcholine, 0.5% taurocholic acid, 20 mM CaCl2
# Protocol: as §1
# [3] = Substrate specificity to various phospholipids, clear zone on solid media with phospholipid emulsions; assay type: biochemical
# Protocol: To investigate substrate specificity to various phospholipids, the purified phospholipase/lipase MPIaG was added to the solid media respectively supplemented with various phospholipid emulsions. Then, the activity over phospholipid was investigated by comparing the size of clear zone. The phospholipid emulsion was composed of 0.5% (v/v) phospholipid substrate, 0.5% (w/v) taurocholic acid, and 20 mM CaCl2. The substrates used herein were phosphatydilcholine (PC, 99% purity), phosphatidylethanolamine (PE, 97% purity), phosphatidylserine (PS, 97% purity), phosphatidylinositol (PI, 98% purity), phosphatidylglycerol (PG, 99% purity), and phosphatidic acid (PA, 98% purity).
# [4] = pH-stat / pH titration of released fatty acid (hydrolysis of triacylglyceride, olive oil, phosphatidylcholine); assay type: biochemical; settings: for specific enzyme activity: pH 8.0, pH titrator
# Protocol: (§2) First method was pH-stat.
# The activity of MPIaG to hydrolyze triacylglyceride, olive oil, and phosphatidylcholine was measured by titrating free fatty acid using pH titrator (842 Tirando, Metrohm). By adding 10 mM NaOH solution, pH of the substrate emulsion was regulated to 8.0. Then, a proper amount of enzyme solution was added thereto. Excretion rate of fatty acid was measured by using pH titrator for 5 minutes. […] To exclude the non-enzymatic hydrolysis value of the substrates, the activity was measured without enzyme addition for every measurement under different conditions, which would be the control reaction.
# To further investigate specificity to substrate each having different carbon length, pH titration was performed with triacylglycerides such as tributyrin (C4), tricaprylin (C8), tricaprin (C10), trilaurin (C12), tripalmitin (C16), and triolein (C18:1).
# [5] = Spectrophotometric assay with para-nitrophenyl ester substrate; assay type: biochemical
# Protocol: as §2
# (§3) To investigate the enzyme activity over pH, the activities were measured in different pH buffers. […] After staying at different pH for 180 minutes, the remaining activity was measured. As a result, the enzyme activity was maintained stably in the pH range of 5˜10 (FIG. 5). Phospholipase and lipase activity over temperature was also investigated. […] The enzyme activity was still observed at 5° C. (39% of maximum activity). When the temperature was raised more than the optimum activity temperature above, the activity was decreased rapidly (FIG. 6). In addition, melting temperature was also investigated by using differential scanning calorimetry (DSC). As a result, the melting temperature was 38.5° C. (FIG. 7).
# Spectrophotometric assay was also performed at room temperature to investigate the activity of MPIaG to para-nitrophenyl ester with various carbon chain lengths, the synthetic substrate. At this experiment, para-nitrophenyl butyrate (C4), para-nitrophenyl caprylate (C8), para-nitrophenyl caprate (C10), para-nitrophenyl laurate (C12), para-nitrophenyl palmitate (C16), and para-nitrophenyl stearate (C18) were used as substrates for the comparison of the activity. 5 mM Ca^2+ was added to the reaction solution. The reaction product para-nitrophenol was continuously measured for 5 minutes at OD450 using DU800 spectrophotometer (Beckman). To exclude the non-enzymatic hydrolysis value of the substrates, the activity was measured without enzyme for every measurement under different conditions, which would be the control reaction.
# [6] = Melting temperature by differential scanning calorimetry (DSC); assay type: physicochemical
# Protocol: as §3
# So, it was expected that the structural stability was increased by calcium ion (FIG. 7).
# [7] = LC-MS of phosphatidylcholine hydrolysis products (chain length and site specificity); assay type: biochemical
# Protocol: Specificity of MPIaG over the location and chain length of phospholipid was investigated. To do so, phosphatydilcholine with different carbon chain lengths (C6, C7, C8, and C14) and 1-oleoly-2-palmitoyl-phosphatidylcholine (OPPC) were used. The purified MPIaG was added to 50 mM tris buffer (pH 8.0) containing 5 mM CaCl2 and 150 mM NaCl, followed by enzyme reaction along with 1 mM substrate for 12 hours at 25° C. The reaction product was analyzed by liquid chromatography mass spectrometry (LC-MS) using Finnigan LCQ. Advantage MAX ion trap mass spectrometer (Thermo Fisher Scientific) was equipped with electrospray ionization source. HPLC isolation was performed with HILIC guard column (4×2.0 mm, Phenomenex) and Kinetex HILIC column (2.6 μm, 2.1×100 mm, Phenomenex). The moving phase A was 10 mM ammonium formate whose pH was regulated as 3.0 with formic acid. The moving phase B was acetonitrile. Gradient elution was performed at the flow rate of 0.2 ml/min as follows: 0˜10 min., 10%˜40% A (linear gradient); 10˜20 min., 70% A (isocratic). Column temperature was room temperature, and the injection volume was 10 μL. Mass spectra were obtained from m/z in the negative ion mode 100˜1200 at the maximum ion injection time of 3 microscans and 200 ms.
# [8] = Expression in E. coli BL21(DE3), Ni-NTA purification and SDS-PAGE
# Protocol: The E. coli BL21(DE3)/pET22b(+)-MPIaG constructed in Example 4 was cultured in a liquid nutritive medium [1% (w/v) trypton, 0.5% (w/v) yeast extract, 0.5% (w/v) NaCl] containing ampicillin (100 μg/ml) until OD600 reached 0.6. IPTG (isopropyl-β-D-thiogalactopyranoside) was added to the culture solution (final conc.: 0.5 mM), followed by further culture for 12 hours. E. coli BL21(DE3)/pET22b(+)-MPIaG was obtained by centrifugation, which was suspended in binding buffer (50 mM Tris-HCl, pH 8, 500 mM NaCl, 10 mM imidazole). The cell suspension was lysed by ultrasonication. The cell lysate was centrifuged to obtain supernatant. The supernatant was loaded on Ni-NTA (nitriloteiacetic acid) column to elute phospholipase and lipase by imidazole gradient, followed by dialysis-concentration. To confirm the purified phospholipase/lipase MPIaG, SDS-PAGE (sodium dodecyl sulfate-polyacrylamide gel electrophoresis) was performed, followed by staining with Coomassie brilliant blue.
molecule,measurement,setting,value
B1,clear zone formation on tricaprylin emulsion medium,[1],formed clear zone on both solid media
same,clear zone formation on phosphatydilcholine emulsion medium,[2],clear zone was clearly formed
same,clear zone formation on phosphatydilcholine emulsion medium,[2]; listed as the gene of the present invention,formed clear zone on both solid media
same,activity to phospholipid substrate (clear zone),[3]; substrate phosphatidic acid (PA),did not decompose
same,activity to phospholipid substrate (clear zone),[3]; substrate phosphatidylethanolamine (PE),excellent activity
same,activity to phospholipid substrate (clear zone),[3]; substrate phosphatidylglycerol (PG),excellent activity
same,activity to phospholipid substrate (clear zone),[3]; substrate phosphatidylserine (PS),did not decompose
same,activity to phospholipid substrate (clear zone),[3]; substrate phosphatydilcholine (PC),excellent activity
same,interfacial activity,[4]; as the concentration of tributyrin increased,showed interfacial activity
same,specific activity by pH-stat,[4]; substrate Olive oil,114.8 ± 11.3
same,specific activity by pH-stat,[4]; substrate Tributyrin (C4),140 ± 6.4
same,specific activity by pH-stat,[4]; substrate phosphatydilcholine,13.4 ± 1.5
same,specific enzyme activity,[4]; toward olive oil,2957±144 Umg^−1
same,specific enzyme activity,[4]; toward phosphatidylcholine,1735±147 Umg^−1
same,substrate chain-length preference,"[4]; triglycerides C4-C18:1, pH titration",triglyceride having short acyl straight chain
same,hydrolysis of triolein (C18:1),"[4]; triolein, not degraded by esterase",decomposed triolein
same,temperature of maximum activity,[5],25 °C
same,temperature up to which the enzyme is active,[5],up to 40 °C
same,"enzyme activity, % of maximum activity",[5]; at 5° C.,39%
same,pH of maximum activity,[5]; different pH buffers,8
same,substrate chain-length preference,"[5]; para-nitrophenyl esters C4-C18, 5 mM Ca^2+",para-nitrophenyl ester having long acyl straight chain
same,pH range in which enzyme activity was maintained stably,[5]; remaining activity after 180 minutes at different pH,5˜10
same,"highest activity, to para-nitrophenyl palmitate (C16)","[5]; room temperature, 5 mM Ca^2+, reference of the fold not stated",approximately 112 times
same,specific activity compared to the full-length phospholipase/lipase PlaG,[5]; synthetic substrate,at least two times increased specific activity
same,melting temperature,[6]; 0 mM calcium,38.5 °C
same,melting temperature,[6]; 2 mM calcium ion,47.2 °C
same,melting temperature,[6]; 5 mM calcium ion,49.2 °C
same,"hydrolase activity of phosphatydilcholine to lysophosphatidylcholine, best substrate","[7]; 1 mM substrate, 12 hours, 25° C., 5 mM CaCl2","highest to 1,2-Dioctanoyl-phosphatidylcholine (diC8PC)"
same,hydrolysis site on OPPC (site specificity),"[7]; OPPC, 25° C., 12 hours, LC-MS",phospholipase A1
same,product 2-hexanoyl-lysophosphatidylcholine,"[7]; diC6PC, LC-MS after reaction",10.4%
same,"remaining substrate 1,2-dihexanoyl-phosphatidylcholine","[7]; diC6PC, LC-MS after reaction",89.6%
same,product 2-heptanoyl-lysophosphatidylcholine,"[7]; diC7PC, LC-MS after reaction",49.5%
same,"remaining substrate 1,2-diheptanoyl-phosphatidylcholine","[7]; diC7PC, LC-MS after reaction",50.5%
same,product 2-octanoyl-lysophosphatidylcholine,"[7]; diC8PC, LC-MS after reaction",50.4%
same,"remaining substrate 1,2-dioctanoyl-phosphatidylcholine","[7]; diC8PC, LC-MS after reaction",49.6%
same,product 2-myristoyl-lysophosphatidylcholine,"[7]; diC14PC, LC-MS after reaction",3.5%
same,"remaining substrate 1,2-dimyristoyl phosphatidylcholine","[7]; diC14PC, LC-MS after reaction",96.5%
same,substrate chain-length preference,"[7]; phosphatidylcholines C6, C7, C8, C14",phospholipid having medium length acyl straight chain
same,solubility of the expressed protein,[8],expressed in a water-soluble form
